Data from the supplement of paper PMC10567573.

B1: ZNF649 (parent)
chain: LTEHKRIHTGKKPHVCSLCGKAFY

Variants of: B1
Assay: protein stability index of a GFP-peptide fusion (GPS, HEK-293T) (PSI 1-6); higher = more stable
Details: c terminus: a fixed tail appended
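Further: lentivirally expressed fusions sorted by FACS into six bins by GFP to DsRed ratio, PSI derived from sequencing read proportions per bin multiplied by bin number.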

First: LTEHKRIHTGAKPHVCSLCGKAFY [K11A]
Second: LTEHKRIHTGRKPHVCSLCGKAFY [K11R]
The protein stability index of the first is higher: 2.32 for the first, 1.76 for the second.

Going from LTEHKRIHTGTKPHVCSLCGKAFY [K11T] to LTEHKRIHTGWKPHVCSLCGKAFY [K11W], the protein stability index rises from 2.62 to 3.42.

Going from LTEHKRIHTGCKPHVCSLCGKAFY [K11C] to LTEHKRIHTGFKPHVCSLCGKAFY [K11F], the protein stability index rises from 2.43 to 2.79.

Going from LTEHKRIHTGQKPHVCSLCGKAFY [K11Q] to LTEHKRIHTGYKPHVCSLCGKAFY [K11Y], the protein stability index falls from 3.01 to 2.5.

Compared with LTEHKRIHTGHKPHVCSLCGKAFY [K11H], LTEHKRIHTGDKPHVCSLCGKAFY [K11D] is higher in protein stability index: 2.23 for the first, 3.21 for the second.

Compared with LTEHKRIHTGPKPHVCSLCGKAFY [K11P], LTEHKRIHTGVKPHVCSLCGKAFY [K11V] is higher in protein stability index: 2.76 for the first, 2.88 for the second.

Compared with LTEHKRIHTGIKPHVCSLCGKAFY [K11I], LTEHKRIHTGMKPHVCSLCGKAFY [K11M] is lower in protein stability index: 2.77 for the first, 2.56 for the second.

First: LTEHKRIHTGEKPHVCSLCGKAFY [K11E]
Second: LTEHKRIHTGSKPHVCSLCGKAFY [K11S]
The protein stability index of the first is higher: 3.4 for the first, 2.43 for the second.

First: LTEHKRIHTGLKPHVCSLCGKAFY [K11L]
Second: LTEHKRIHTGNKPHVCSLCGKAFY [K11N]
The protein stability index of the first is higher: 2.96 for the first, 2.35 for the second.

Compared with LTEHKRIHTGGKPHVCSLCGKAFY [K11G], LTEHKRIHTGKKPGVCSLCGKAFY [H14G] is lower in protein stability index: 2.54 for the first, 2.22 for the second.

Going from LTEHKRIHTGKKPVVCSLCGKAFY [H14V] to LTEHKRIHTGKKPTVCSLCGKAFY [H14T], the protein stability index rises from 1.96 to 2.17.

First: LTEHKRIHTGKKPQVCSLCGKAFY [H14Q]
Second: LTEHKRIHTGKKPFVCSLCGKAFY [H14F]
The protein stability index of the first is higher: 2.97 for the first, 2.4 for the second.

First: LTEHKRIHTGKKPWVCSLCGKAFY [H14W]
Second: LTEHKRIHTGKKPSVCSLCGKAFY [H14S]
The protein stability index of the first is higher: 3.52 for the first, 2.25 for the second.

Compared with LTEHKRIHTGKKPNVCSLCGKAFY [H14N], LTEHKRIHTGKKPAVCSLCGKAFY [H14A] is higher in protein stability index: 1.97 for the first, 3.54 for the second.

First: LTEHKRIHTGKKPRVCSLCGKAFY [H14R]
Second: LTEHKRIHTGKKPLVCSLCGKAFY [H14L]
The protein stability index of the first is lower: 2.2 for the first, 2.71 for the second.

First: LTEHKRIHTGKKPMVCSLCGKAFY [H14M]
Second: LTEHKRIHTGKKPPVCSLCGKAFY [H14P]
The protein stability index of the first is lower: 2.86 for the first, 3.18 for the second.

Compared with LTEHKRIHTGKKPDVCSLCGKAFY [H14D], LTEHKRIHTGKKPYVCSLCGKAFY [H14Y] is higher in protein stability index: 2.34 for the first, 2.63 for the second.

Compared with LTEHKRIHTGKKPCVCSLCGKAFY [H14C], LTEHKRIHTGKKPHECSLCGKAFY [V15E] is lower in protein stability index: 2.78 for the first, 2.56 for the second.

First: LTEHKRIHTGKKPHFCSLCGKAFY [V15F]
Second: LTEHKRIHTGKKPHDCSLCGKAFY [V15D]
The protein stability index of the first is lower: 2.42 for the first, 2.93 for the second.

First: LTEHKRIHTGKKPHGCSLCGKAFY [V15G]
Second: LTEHKRIHTGKKPHCCSLCGKAFY [V15C]
The protein stability index of the first is lower: 2.56 for the first, 2.6 for the second.

Compared with LTEHKRIHTGKKPHACSLCGKAFY [V15A], LTEHKRIHTGKKRHVCSLCGKAFY [P13R] is higher in protein stability index: 1.54 for the first, 3.48 for the second.

Compared with LTEHKRIHTGKKYHVCSLCGKAFY [P13Y], LTEHKRIHTGKKEHVCSLCGKAFY [P13E] is higher in protein stability index: 2.88 for the first, 2.96 for the second.

First: LTEHKRIHTGKKTHVCSLCGKAFY [P13T]
Second: LTEHKRIHTGKKQHVCSLCGKAFY [P13Q]
The protein stability index of the first is higher: 3.55 for the first, 2.26 for the second.

First: LTEHKRIHTGKKVHVCSLCGKAFY [P13V]
Second: LTEHKRIHTGKKGHVCSLCGKAFY [P13G]
The protein stability index of the first is higher: 3.06 for the first, 2.48 for the second.

Compared with LTEHKRIHTGKKDHVCSLCGKAFY [P13D], LTEHKRIHTGKKLHVCSLCGKAFY [P13L] is higher in protein stability index: 1.8 for the first, 2.32 for the second.

First: LTEHKRIHTGKKFHVCSLCGKAFY [P13F]
Second: LTEHKRIHTGKKSHVCSLCGKAFY [P13S]
The protein stability index of the first is lower: 2.23 for the first, 2.33 for the second.

Compared with LTEHKRIHTGKKHHVCSLCGKAFY [P13H], LTEHKRIHTGKKNHVCSLCGKAFY [P13N] is lower in protein stability index: 2.29 for the first, 2.15 for the second.

Compared with LTEHKRIHTGKKKHVCSLCGKAFY [P13K], LTEHKRIHTGKKMHVCSLCGKAFY [P13M] is higher in protein stability index: 2.03 for the first, 3.06 for the second.

First: LTEHKRIHTGKKIHVCSLCGKAFY [P13I]
Second: LTEHKRIHTCKKPHVCSLCGKAFY [G10C]
The protein stability index of the first is lower: 2.84 for the first, 3.76 for the second.

Compared with LTEHKRIHTEKKPHVCSLCGKAFY [G10E], LTEHKRIHTLKKPHVCSLCGKAFY [G10L] is lower in protein stability index: 3.6 for the first, 2.27 for the second.

First: LTEHKRIHTQKKPHVCSLCGKAFY [G10Q]
Second: LTEHKRIHTAKKPHVCSLCGKAFY [G10A]
The protein stability index of the first is lower: 2.28 for the first, 2.78 for the second.

First: LTEHKRIHTTKKPHVCSLCGKAFY [G10T]
Second: LTEHKRIHTNKKPHVCSLCGKAFY [G10N]
The protein stability index of the first is higher: 2.83 for the first, 1.98 for the second.

Going from LTEHKRIHTPKKPHVCSLCGKAFY [G10P] to LTEHKRIHTKKKPHVCSLCGKAFY [G10K], the protein stability index falls from 3.22 to 2.96.

First: LTEHKRIHTSKKPHVCSLCGKAFY [G10S]
Second: LTEHKRIHTDKKPHVCSLCGKAFY [G10D]
The protein stability index of the first is lower: 2.19 for the first, 2.63 for the second.

Going from LTEHKRIHTHKKPHVCSLCGKAFY [G10H] to LTEHKRIHTVKKPHVCSLCGKAFY [G10V], the protein stability index rises from 2.16 to 2.28.

Compared with LTEHKRIHTIKKPHVCSLCGKAFY [G10I], LTEHKRIHTYKKPHVCSLCGKAFY [G10Y] is lower in protein stability index: 2.49 for the first, 2.45 for the second.

Going from LTEHKRIHTMKKPHVCSLCGKAFY [G10M] to LTEHKRIHTFKKPHVCSLCGKAFY [G10F], the protein stability index rises from 3.35 to 3.73.

Going from LTEHKRIHTWKKPHVCSLCGKAFY [G10W] to LTEHKRIHTGKAPHVCSLCGKAFY [K12A], the protein stability index falls from 2.97 to 2.44.

Compared with LTEHKRIHTGKGPHVCSLCGKAFY [K12G], LTEHKRIHTGKSPHVCSLCGKAFY [K12S] is lower in protein stability index: 3.6 for the first, 1.78 for the second.

Going from LTEHKRIHTGKEPHVCSLCGKAFY [K12E] to LTEHKRIHTGKHPHVCSLCGKAFY [K12H], the protein stability index falls from 2.75 to 1.97.

First: LTEHKRIHTGKQPHVCSLCGKAFY [K12Q]
Second: LTEHKRIHTGKRPHVCSLCGKAFY [K12R]
The protein stability index of the first is lower: 2.39 for the first, 2.61 for the second.

Going from LTEHKRIHTGKFPHVCSLCGKAFY [K12F] to LTEHKRIHTGKNPHVCSLCGKAFY [K12N], the protein stability index rises from 2.32 to 3.3.

First: LTEHKRIHTGKYPHVCSLCGKAFY [K12Y]
Second: LTEHKRIHTGKIPHVCSLCGKAFY [K12I]
The protein stability index of the first is lower: 2.32 for the first, 2.5 for the second.

Going from LTEHKRIHTGKTPHVCSLCGKAFY [K12T] to LTEHKRIHTGKLPHVCSLCGKAFY [K12L], the protein stability index rises from 1.79 to 2.5.

Going from LTEHKRIHTGKDPHVCSLCGKAFY [K12D] to LTEHKRIHTGKWPHVCSLCGKAFY [K12W], the protein stability index falls from 3.14 to 2.27.

Compared with LTEHKRIHTGKVPHVCSLCGKAFY [K12V], LTEHKRIHTGKPPHVCSLCGKAFY [K12P] is lower in protein stability index: 3.42 for the first, 2.31 for the second.

Compared with LTEHKRIHTGKMPHVCSLCGKAFY [K12M], LTEHKRIHTGKCPHVCSLCGKAFY [K12C] is higher in protein stability index: 2.28 for the first, 2.81 for the second.
